Columns and labels:
c-Src SH2 = assay: SH2 binding enrichment of the phosphorylated peptide, bacterial display (enrichment ratio); higher = better substrate or ligand; peptides without Tyr show the background
SHP2-C SH2 = assay: as above
Grb2 SH2 = Grb2 SH2 (UniProt P62993); assay: as above
c-Src = assay: phosphorylation enrichment, bacterial display (enrichment ratio); higher = better substrate or ligand; peptides without Tyr show the background
FGFR1 = FGFR1 (UniProt P11362); assay: as above
c-Abl (mouse) = assay: as above
MERTK = MERTK (UniProt Q12866); assay: as above
EPHB1 = EPHB1 (UniProt P54762); assay: as above
Chain of EPHB1 (P54762 whole entry, looked up): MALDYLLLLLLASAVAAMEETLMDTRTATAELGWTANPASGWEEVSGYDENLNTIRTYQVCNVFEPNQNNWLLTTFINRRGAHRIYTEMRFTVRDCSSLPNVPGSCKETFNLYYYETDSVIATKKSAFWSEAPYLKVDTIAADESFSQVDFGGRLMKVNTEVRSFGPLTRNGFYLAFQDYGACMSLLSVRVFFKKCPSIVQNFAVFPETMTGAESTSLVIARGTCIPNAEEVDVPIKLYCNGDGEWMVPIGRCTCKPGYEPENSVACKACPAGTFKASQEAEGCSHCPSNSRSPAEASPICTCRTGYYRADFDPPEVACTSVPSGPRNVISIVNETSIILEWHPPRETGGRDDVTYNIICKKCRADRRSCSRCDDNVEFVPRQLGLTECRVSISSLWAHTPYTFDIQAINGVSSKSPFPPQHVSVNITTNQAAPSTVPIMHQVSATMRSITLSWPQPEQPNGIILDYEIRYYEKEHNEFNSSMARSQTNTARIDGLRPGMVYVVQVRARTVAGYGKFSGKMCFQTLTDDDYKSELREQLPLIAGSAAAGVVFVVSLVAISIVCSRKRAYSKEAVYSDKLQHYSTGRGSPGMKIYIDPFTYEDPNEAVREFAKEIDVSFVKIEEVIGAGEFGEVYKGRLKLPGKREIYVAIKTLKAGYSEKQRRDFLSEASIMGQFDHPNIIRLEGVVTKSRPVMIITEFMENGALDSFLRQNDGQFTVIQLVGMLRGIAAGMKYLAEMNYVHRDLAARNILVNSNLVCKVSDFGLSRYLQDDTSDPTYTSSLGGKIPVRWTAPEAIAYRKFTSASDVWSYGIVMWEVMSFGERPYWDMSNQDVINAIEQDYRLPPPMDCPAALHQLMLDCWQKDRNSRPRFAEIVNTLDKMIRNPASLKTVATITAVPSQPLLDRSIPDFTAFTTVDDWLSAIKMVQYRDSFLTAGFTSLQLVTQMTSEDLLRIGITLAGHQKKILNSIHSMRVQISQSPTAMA

Fyn = Fyn (UniProt P06241); assay: as above
Chain of Fyn (P06241 whole entry, looked up): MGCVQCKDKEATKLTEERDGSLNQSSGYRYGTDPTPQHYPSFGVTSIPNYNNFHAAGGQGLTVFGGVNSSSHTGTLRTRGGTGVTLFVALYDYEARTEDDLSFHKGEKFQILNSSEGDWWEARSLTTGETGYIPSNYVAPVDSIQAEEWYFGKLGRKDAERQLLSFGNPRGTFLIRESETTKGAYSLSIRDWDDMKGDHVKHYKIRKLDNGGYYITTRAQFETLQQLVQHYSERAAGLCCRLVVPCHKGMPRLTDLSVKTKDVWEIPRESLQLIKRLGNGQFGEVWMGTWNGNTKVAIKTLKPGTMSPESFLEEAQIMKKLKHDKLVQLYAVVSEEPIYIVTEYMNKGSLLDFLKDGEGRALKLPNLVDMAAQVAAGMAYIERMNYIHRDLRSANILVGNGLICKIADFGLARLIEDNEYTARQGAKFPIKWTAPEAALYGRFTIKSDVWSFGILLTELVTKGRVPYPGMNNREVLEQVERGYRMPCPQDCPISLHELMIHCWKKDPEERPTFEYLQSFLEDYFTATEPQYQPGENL

AncSZ = assay: as above
FGFR3 = FGFR3 (UniProt P22607); assay: as above
EPHB2 = EPHB2 (UniProt P29323); assay: as above
Hck = Hck (UniProt P08631); assay: as above
Chain of Hck (P08631 whole entry, looked up): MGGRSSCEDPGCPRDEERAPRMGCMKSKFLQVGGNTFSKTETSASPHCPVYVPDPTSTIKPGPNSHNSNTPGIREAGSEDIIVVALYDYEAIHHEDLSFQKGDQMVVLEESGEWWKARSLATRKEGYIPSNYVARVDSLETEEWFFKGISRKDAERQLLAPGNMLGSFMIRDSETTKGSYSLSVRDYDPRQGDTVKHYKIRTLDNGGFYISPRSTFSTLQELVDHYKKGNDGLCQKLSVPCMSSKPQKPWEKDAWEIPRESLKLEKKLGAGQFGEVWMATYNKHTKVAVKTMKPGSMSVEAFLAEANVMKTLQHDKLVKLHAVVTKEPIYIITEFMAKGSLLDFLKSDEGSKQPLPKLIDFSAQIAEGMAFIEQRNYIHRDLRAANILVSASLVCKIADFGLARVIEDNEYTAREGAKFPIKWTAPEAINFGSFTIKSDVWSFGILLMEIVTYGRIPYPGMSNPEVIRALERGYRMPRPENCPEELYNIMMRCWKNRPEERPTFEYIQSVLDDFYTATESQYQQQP

Fes = Fes (UniProt P07332); assay: as above
Chain of Fes (P07332 whole entry, looked up): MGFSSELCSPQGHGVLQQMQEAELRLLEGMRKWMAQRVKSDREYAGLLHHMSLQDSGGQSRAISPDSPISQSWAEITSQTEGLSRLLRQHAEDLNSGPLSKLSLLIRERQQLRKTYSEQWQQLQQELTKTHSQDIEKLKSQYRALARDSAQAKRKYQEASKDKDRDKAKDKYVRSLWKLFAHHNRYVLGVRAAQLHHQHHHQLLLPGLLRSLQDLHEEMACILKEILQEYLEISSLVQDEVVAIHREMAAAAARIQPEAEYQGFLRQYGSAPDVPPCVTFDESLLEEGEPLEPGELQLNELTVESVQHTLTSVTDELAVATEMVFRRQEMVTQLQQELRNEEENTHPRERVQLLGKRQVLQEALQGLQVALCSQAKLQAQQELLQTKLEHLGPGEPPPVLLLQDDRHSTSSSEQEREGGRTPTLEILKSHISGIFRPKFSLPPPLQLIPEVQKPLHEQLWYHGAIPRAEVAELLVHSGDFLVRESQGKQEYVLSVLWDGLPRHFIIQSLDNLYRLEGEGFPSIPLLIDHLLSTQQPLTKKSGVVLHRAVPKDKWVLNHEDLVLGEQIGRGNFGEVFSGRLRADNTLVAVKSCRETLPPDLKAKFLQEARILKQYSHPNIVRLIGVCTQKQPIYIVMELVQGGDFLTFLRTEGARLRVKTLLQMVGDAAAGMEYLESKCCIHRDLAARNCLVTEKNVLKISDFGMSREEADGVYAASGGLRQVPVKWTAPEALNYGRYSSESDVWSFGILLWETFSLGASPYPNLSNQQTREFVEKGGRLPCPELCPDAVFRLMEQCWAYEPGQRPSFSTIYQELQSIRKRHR

Jak2 = Jak2 (UniProt O60674); assay: as above
Chain of Jak2 (O60674 whole entry, looked up): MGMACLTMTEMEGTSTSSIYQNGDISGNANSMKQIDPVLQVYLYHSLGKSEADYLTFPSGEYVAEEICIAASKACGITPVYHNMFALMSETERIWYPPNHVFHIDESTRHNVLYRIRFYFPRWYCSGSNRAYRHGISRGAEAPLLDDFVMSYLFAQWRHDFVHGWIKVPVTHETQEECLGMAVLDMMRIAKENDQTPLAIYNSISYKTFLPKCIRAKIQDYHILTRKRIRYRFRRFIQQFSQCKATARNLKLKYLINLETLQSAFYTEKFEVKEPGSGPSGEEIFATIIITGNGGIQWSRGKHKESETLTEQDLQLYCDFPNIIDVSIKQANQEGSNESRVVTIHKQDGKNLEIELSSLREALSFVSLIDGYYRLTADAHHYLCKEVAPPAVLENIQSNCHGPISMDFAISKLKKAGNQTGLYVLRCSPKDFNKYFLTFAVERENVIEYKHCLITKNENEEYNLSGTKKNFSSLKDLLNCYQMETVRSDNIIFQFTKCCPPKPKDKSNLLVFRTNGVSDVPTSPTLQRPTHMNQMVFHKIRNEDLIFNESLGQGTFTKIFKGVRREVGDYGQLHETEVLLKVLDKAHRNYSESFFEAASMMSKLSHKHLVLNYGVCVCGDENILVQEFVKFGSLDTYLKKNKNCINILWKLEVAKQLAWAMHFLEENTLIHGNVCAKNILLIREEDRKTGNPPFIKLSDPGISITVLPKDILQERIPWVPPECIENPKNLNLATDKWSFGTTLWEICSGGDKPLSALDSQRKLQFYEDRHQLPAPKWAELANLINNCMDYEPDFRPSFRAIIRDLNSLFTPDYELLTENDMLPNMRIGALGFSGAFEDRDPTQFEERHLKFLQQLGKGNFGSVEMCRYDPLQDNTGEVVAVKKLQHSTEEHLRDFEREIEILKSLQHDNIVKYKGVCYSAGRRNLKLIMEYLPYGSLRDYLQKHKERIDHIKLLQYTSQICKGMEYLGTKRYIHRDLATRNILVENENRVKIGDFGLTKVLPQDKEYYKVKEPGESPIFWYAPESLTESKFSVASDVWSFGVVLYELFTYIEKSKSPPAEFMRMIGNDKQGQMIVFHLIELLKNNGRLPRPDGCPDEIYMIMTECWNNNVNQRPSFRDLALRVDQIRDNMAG

Fer (mouse) = assay: as above
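Wherever SH2 binding enrichment of the phosphorylated peptide, bacterial display is given: peptide library displayed on the E. coli surface as eCPX fusions, selected cells deep-sequenced, score is each peptide's frequency after selection divided by its frequency in the input.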
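Wherever phosphorylation enrichment, bacterial display is given: 11-residue human phosphosite peptides and single-mutation variants displayed on the E. coli surface, counted by deep sequencing, each peptide's frequency after selection divided by its frequency in the unselected input library; frequency after pTyr selection over input frequency; kinase dosed for 20-30% of maximal phosphorylation in three min.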

Chain of FGFR1 (P11362 whole entry, looked up): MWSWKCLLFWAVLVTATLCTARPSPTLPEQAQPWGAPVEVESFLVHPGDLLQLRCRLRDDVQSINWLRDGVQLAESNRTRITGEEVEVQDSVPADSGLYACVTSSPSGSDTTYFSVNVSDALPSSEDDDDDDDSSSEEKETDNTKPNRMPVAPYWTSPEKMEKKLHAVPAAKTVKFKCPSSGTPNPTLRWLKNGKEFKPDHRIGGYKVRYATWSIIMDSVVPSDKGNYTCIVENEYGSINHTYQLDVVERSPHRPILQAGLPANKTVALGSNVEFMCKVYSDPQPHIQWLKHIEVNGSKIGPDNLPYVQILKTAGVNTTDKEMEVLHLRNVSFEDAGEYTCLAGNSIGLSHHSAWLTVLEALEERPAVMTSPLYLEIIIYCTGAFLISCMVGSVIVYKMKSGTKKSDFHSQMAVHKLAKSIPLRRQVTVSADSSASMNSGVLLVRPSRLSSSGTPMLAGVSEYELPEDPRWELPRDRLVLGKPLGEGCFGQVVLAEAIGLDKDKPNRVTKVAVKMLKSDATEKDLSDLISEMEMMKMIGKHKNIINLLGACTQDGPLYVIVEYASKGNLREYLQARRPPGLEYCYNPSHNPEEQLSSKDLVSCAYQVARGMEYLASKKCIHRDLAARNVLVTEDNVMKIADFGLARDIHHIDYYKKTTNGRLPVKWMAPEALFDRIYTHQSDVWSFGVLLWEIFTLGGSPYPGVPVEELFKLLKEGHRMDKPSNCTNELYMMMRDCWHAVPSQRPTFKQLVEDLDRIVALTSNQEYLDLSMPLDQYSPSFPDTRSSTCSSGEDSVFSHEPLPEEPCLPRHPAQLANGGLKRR

Sequence | SH2 binding enrichment (c-Src SH2) | SH2 binding enrichment (SHP2-C SH2) | SH2 binding enrichment (Grb2 SH2) | phosphorylation enrichment (c-Src) | phosphorylation enrichment (FGFR1) | phosphorylation enrichment (c-Abl (mouse)) | phosphorylation enrichment (MERTK) | phosphorylation enrichment (EPHB1) | phosphorylation enrichment (Fyn) | phosphorylation enrichment (AncSZ) | phosphorylation enrichment (FGFR3) | phosphorylation enrichment (EPHB2) | phosphorylation enrichment (Hck) | phosphorylation enrichment (Fes) | phosphorylation enrichment (Jak2) | phosphorylation enrichment (Fer (mouse))
IIEDPYYGNDF [ACP1_Y132_S137F] | 0.726 | 0.488 | 0.958 | 4.91 | 3.18 | 1.09 | 1.15 | 0.683 | 2.71 | 1.79 | 2.88 | 0.666 | 1.55 | 1.48 | 1.48 | 1.42
GHEFIYVDRMQ [PDGFRB_Y581_P584R_YF] | 0.399 | 0.741 | 0.92 | 2.02 | 0.555 | 0.651 | 0.479 | 0.47 | 1.42 | 0.777 | 0.624 | 0.685 | 1.11 | 0.836 | 0.541 | 0.382
YFRDGHMPRQY [GSS_Y270_Y270H] | 0.51 | 0.821 | 1.04 | 0.401 | 0.531 | 0.541 | 0.445 | 0.458 | 0.443 | 0.454 | 0.583 | 0.462 | 0.45 | 0.584 | 1.03 | 0.436
AIIGIYNLRDD [CDH23_Y2949_I2950N] | 0.805 | 0.951 | 1.14 | 5.84 | 0.478 | 0.691 | 0.573 | 0.481 | 6.82 | 0.821 | 0.599 | 0.437 | 5.28 | 1 | 0.795 | 0.45
QSSALYEDCYL [ASS1_Y83_R86C] | 0.86 | 0.514 | 0.863 | 3.61 | 0.788 | 1.35 | 3.43 | 12.4 | 3 | 1.82 | 1.02 | 7.55 | 1.84 | 2.95 | 1.5 | 16.9
PNQRRYVFFFS [PTEN_Y174_S170N_YF] | 1.23 | 1.88 | 1.14 | 0.677 | 0.731 | 1.22 | 0.491 | 0.61 | 0.524 | 1.89 | 1.25 | 0.639 | 0.77 | 1.65 | 1.22 | 0.76
DTDSSYCIPIA [GAB1_Y373_T377I] | 0.551 | 0.441 | 0.88 | 0.435 | 0.586 | 0.82 | 1.16 | 0.829 | 0.467 | 2.21 | 0.706 | 0.721 | 0.413 | 1.05 | 0.925 | 0.483
FETDFYQKGGK [INSR_Y1190_R1191Q_YF] | 0.564 | 0.62 | 0.797 | 0.427 | 0.411 | 0.523 | 0.421 | 0.834 | 0.519 | 0.633 | 0.503 | 0.355 | 0.472 | 0.88 | 0.526 | 0.47
GRQVIYTENER [GPR143_Y231_G229V] | 0.558 | 0.681 | 0.729 | 0.513 | 0.435 | 0.537 | 0.43 | 0.441 | 0.407 | 0.531 | 0.479 | 0.41 | 0.462 | 0.89 | 0.552 | 0.382
EREFKYGAHKF [OAT_Y50_N54K_YF] | 0.464 | 0.585 | 0.846 | 0.423 | 0.424 | 0.496 | 0.392 | 0.339 | 0.443 | 0.599 | 0.438 | 0.412 | 0.427 | 0.738 | 0.571 | 0.329
EKNANYKEGTF [CLRN1_Y171_I168N_YF] | 0.503 | 0.874 | 0.944 | 0.389 | 0.401 | 0.647 | 0.425 | 0.346 | 0.452 | 0.715 | 0.46 | 0.445 | 0.381 | 0.757 | 0.635 | 0.397
VDGSLYETHPQ [HK1_Y417_K418E] | 0.503 | 0.661 | 0.828 | 0.918 | 0.441 | 0.541 | 1.18 | 1.5 | 1.13 | 1.26 | 0.607 | 2.37 | 2.09 | 0.861 | 0.653 | 9.06
KDFETYQSFQN [CTNND2_Y1157_P1159S_YF] | 0.523 | 0.816 | 0.846 | 4.94 | 0.5 | 0.668 | 0.484 | 2 | 6.89 | 0.958 | 0.691 | 1.17 | 5.29 | 0.984 | 0.798 | 0.493
NPSFNYEIVNQ [DYNC1H1_Y3379_R3384Q_YF] | 0.724 | 0.579 | 0.78 | 0.408 | 0.763 | 0.586 | 0.492 | 3.9 | 0.524 | 1.43 | 0.847 | 1.44 | 0.602 | 1.47 | 1.13 | 1.12
VDTFWYKFLKP [EPM2A_Y86_R91P] | 0.388 | 0.626 | 0.601 | 0.43 | 0.463 | 0.694 | 0.471 | 0.644 | 0.388 | 0.982 | 0.808 | 0.533 | 0.426 | 1.28 | 1.05 | 0.515
DLDFTYIYPNI [PTEN_Y27_L25F] | 2.69 | 0.496 | 0.67 | 1.47 | 4.18 | 0.953 | 1.22 | 0.83 | 2.5 | 4.17 | 3.11 | 0.945 | 1.37 | 1.23 | 2.36 | 0.501
RAMRRYLERGE [ERBB3_Y680] | 0.411 | 0.554 | 0.716 | 0.455 | 0.636 | 0.615 | 0.61 | 0.719 | 0.608 | 0.722 | 0.679 | 0.563 | 0.711 | 0.576 | 0.607 | 0.686
KNNDGNIDFAE [MCFD2_Y135_Y135N_YF] | 0.6 | 0.834 | 0.912 | 0.462 | 0.447 | 1 | 0.589 | 0.504 | 0.558 | 1.07 | 0.683 | 0.673 | 0.539 | 1.26 | 1.21 | 0.525
ALTDNYMYVVI [HAGH_Y61_L64V] | 0.607 | 0.767 | 0.783 | 1.12 | 11.1 | 0.952 | 4.21 | 12.9 | 1.04 | 1.92 | 9.14 | 13.1 | 1.52 | 1.42 | 2.65 | 7.79

Continued, in another order:

SH2 binding enrichment (c-Src SH2) | SH2 binding enrichment (SHP2-C SH2) | SH2 binding enrichment (Grb2 SH2) | Sequence | phosphorylation enrichment (c-Src) | phosphorylation enrichment (FGFR1) | phosphorylation enrichment (c-Abl (mouse)) | phosphorylation enrichment (MERTK) | phosphorylation enrichment (EPHB1) | phosphorylation enrichment (Fyn) | phosphorylation enrichment (AncSZ) | phosphorylation enrichment (FGFR3) | phosphorylation enrichment (EPHB2) | phosphorylation enrichment (Hck) | phosphorylation enrichment (Fes) | phosphorylation enrichment (Jak2) | phosphorylation enrichment (Fer (mouse))
6.1 | 2.73 | 1.2 | CTTIHYDFMCN [TP53_Y234_N235D_YF] | 0.545 | 0.544 | 0.704 | 0.49 | 0.681 | 0.644 | 1.16 | 0.764 | 0.514 | 0.656 | 1.03 | 0.873 | 1.05
0.437 | 0.684 | 0.631 | RNFGTYTAGLS [RHBDD1_Y264_D262G_YF] | 0.517 | 0.483 | 0.445 | 0.302 | 0.377 | 0.441 | 0.702 | 1.07 | 0.477 | 0.657 | 0.495 | 0.315 | 0.798
2.23 | 1.51 | 1.37 | CATIHYNFMCN [TP53_Y234_T230A_YF] | 0.525 | 0.634 | 0.757 | 0.497 | 0.68 | 0.478 | 0.993 | 0.596 | 0.52 | 0.577 | 0.944 | 0.903 | 0.602
0.44 | 0.968 | 0.937 | AIDDKYSRREE [SART1_Y685] | 0.426 | 0.488 | 0.471 | 0.439 | 0.431 | 0.51 | 0.806 | 0.578 | 0.511 | 0.465 | 0.939 | 0.794 | 0.434
0.47 | 0.592 | 0.796 | SDVCMYRKNTY [SYNE2_Y570_I574T] | 0.377 | 0.429 | 0.684 | 0.403 | 0.477 | 0.405 | 0.76 | 0.695 | 0.519 | 0.487 | 0.905 | 0.67 | 0.401
0.876 | 1.3 | 1.02 | LFLACYCIGGG [UBD_Y161] | 0.545 | 0.764 | 0.908 | 0.483 | 0.803 | 0.72 | 1.22 | 1.29 | 1.12 | 0.562 | 2.71 | 1.38 | 0.657
2.49 | 0.854 | 1.08 | NTGNYYDLYGG [PTPN11_Y63_D61N] | 5.29 | 15.7 | 1.01 | 9.28 | 18.3 | 6.39 | 1.73 | 12.6 | 20.1 | 6.84 | 0.984 | 2.42 | 2.82
0.472 | 0.508 | 0.856 | SVTCTCSPALN [TP53_Y126_Y126C] | 0.415 | 0.585 | 0.907 | 0.395 | 0.704 | 0.479 | 1.16 | 0.889 | 0.614 | 0.526 | 1.48 | 1.15 | 0.533
0.906 | 1.03 | 1.28 | VVLVSYVPFSQ [SH2B1_Y624_S627F] | 0.833 | 0.526 | 0.938 | 0.496 | 0.716 | 0.55 | 1.29 | 0.771 | 0.702 | 0.648 | 1.37 | 1.38 | 0.501
0.521 | 0.607 | 0.828 | AASHRYDLGGL [QPRT_Y162] | 0.391 | 0.416 | 0.432 | 0.327 | 0.356 | 0.352 | 0.491 | 0.4 | 0.375 | 0.35 | 0.56 | 0.521 | 0.336

— the supplement of paper PMC10065799, “High-throughput profiling of sequence recognition by tyrosine kinases and SH2 domains using bacterial peptide display” (eLife, 2023)
